T1: Soluble human IL-3Rα (human, UniProt P26951 20-305, limits assumed)
T1 construct: The assay used 'soluble human IL-3Rα'; also called IL-3Rα chain; interleukin 3 receptor alpha chain
T1 sequence: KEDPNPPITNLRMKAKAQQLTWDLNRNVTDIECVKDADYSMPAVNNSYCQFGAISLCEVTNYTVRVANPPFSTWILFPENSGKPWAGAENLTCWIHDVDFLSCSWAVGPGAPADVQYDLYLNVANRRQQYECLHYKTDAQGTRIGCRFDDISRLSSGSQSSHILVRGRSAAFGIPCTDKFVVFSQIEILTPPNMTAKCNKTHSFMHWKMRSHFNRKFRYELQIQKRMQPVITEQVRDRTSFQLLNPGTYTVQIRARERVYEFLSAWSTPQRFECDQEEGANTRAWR


Key:
Soluble human IL-3Rα [1] = target: T1, Soluble human IL-3Rα; test: SPR (Biacore), mAb captured by anti-human Fc antibody, soluble human IL-3Rα injected, 25 °C
Soluble human IL-3Rα [2] = target: T1, Soluble human IL-3Rα; test: SPR (Biacore), mAb captured by anti-mouse Fc antibody, soluble human IL-3Rα injected, 25 °C
[3] = target: Soluble human IL-3Rα (human) (UniProt P26951); test: SPR (Biacore), soluble human IL-3Rα immobilized on CM-5 chip, scFv injected, 25 °C

Kd (Soluble human IL-3Rα [1]) [pM]	Molecule	also measured
1000	chimeric form of parental murine mAb (human IgG1) (antibody)	–
–	parental murine mAb (7G3) (antibody)	Kd (Soluble human IL-3Rα [2]): 920 pM
–	CSL362 scFv	Kd [3]: 2200 pM
~430	CSL362B (antibody, human IgG1, kappa, V domains shown, Heavy chain constant region is afucosylated, Expressed in FUT8-knock-out CHO cells (Potelligent)) VH: EVQLVQSGAEVKKPGESLKISCKGSGYSFTDYYMKWARQMPGKGLEWMGDIIPSNGATFYNQKFKGQVTISADKSISTTYLQWSSLKASDTAMYYCARSHLLRASWFAYWGQGTMVTVSS VL: DIVMTQSPDSLAVSLGERATINCESSQSLLNSGNQKNYLTWYQQKPGQPPKPLIYWASTRESGVPDRFSGSGSGTDFTLTISSLQAEDVAVYYCQNDYSYPYTFGQGTKLEIKR	–
